Assay results published in US20030064070A1.

Molecular target: recombinant human TNFα (rhTNF) (human) (UniProt P01375)
Assay: cell-based or functional assay

Chain of UniProt P01375 (P01375 77-233 limits assumed): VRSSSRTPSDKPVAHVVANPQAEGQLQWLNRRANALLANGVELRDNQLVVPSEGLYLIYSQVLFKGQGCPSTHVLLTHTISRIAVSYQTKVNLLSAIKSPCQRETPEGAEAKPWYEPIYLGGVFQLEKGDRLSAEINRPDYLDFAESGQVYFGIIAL

B1: chimeric mouse/human IgG1 anti-platelet mAb (7E3) (antibody, INN chains, looked up, V domains shown)
VH: EVQLQQSGTVLARPGASVKMSCEASGYTFTNYWMHWVKQRPGQGLEWIGAIYPGNSDTSYIQKFKGKAKLTAVTSTTSVYMELSSLTNEDSAVYYCTLYDGYYVFAYWGQGTLVTVSA
VL: EIVLTQSPVTLSVTPGDSVSLSCRASRDISNNLHWFQQTSHESPRLLIKYASQSMSGIPSRFSGSGSGTDFTLSINSVETEDFGMYFCQQTNSWPYTFGGGTKLEIK
modifications: IgG1
- IL-6 in supernatant of FS-4 fibroblasts, TNF 0.3 ng/ml, antibody 4 µg/ml: 1.6 ng/mL
- IL-6 in supernatant of FS-4 fibroblasts, TNF 1.5 ng/ml, antibody 4 µg/ml: 1.96 ng/mL
- IL-6 in supernatant of FS-4 fibroblasts, TNF 7.5 ng/ml, antibody 4 µg/ml: 2.16 ng/mL
